From the nanobody polyreactivity screen of Harvey et al. (2022)

Test: yeast display, Sf9 membrane polyspecificity reagent, FACS + sequencing; frameworks hold sequencing errors
Procedure, shortened: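 Sorting gates, low and high (top ~1%), were placed on anti-HA fluorescence to track expression and on streptavidin fluorescence to track reagent binding. A clone's polyreactivity label is taken from the gate it came out of. The reagent was 10% biotinylated, detergent-solubilized Sf9 membrane, applied for 1 hour at 4 °C to galactose-induced yeast display cells.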

Sequence | polyreactivity (PSR sort gate)
QVQLVESGGGLVQSGGSHPLSCAASGRTFYSYAMRGYRQAPGKDSEFVAAIRRCGSSTYYADSVKGRFTISRDNAKNTVYLQMNSLKPEDTAVYYCNAAPYIYPIRGNYWGQGTQETVSS | high polyreactivity
QVQLVESGGGLVQSGGSLRLSCAASGCIFSKNAMGWYRPAPGKERELVAAISWSGGSTSYADSVKGRFTISRDNAKNTVYLQMNSLKPEDTAVYYCARVGAIPSRYGYWGQGTQVTVSS | high polyreactivity
QVQLVESGGGLVQSGGSLRLSCAASGFIFEAYAMGWYRQAPGKEMELVAAISSGGSTKYADSVKGRFTISRDNAKNSVYLQMNSLKPEDTAVYYCAKSSWTYGAYNYLGQGTQVTVSS | high polyreactivity
QVQLVESGGGLVQSGGSLRLSCAASGFTFRFYAMGWYSQAPGKEREMVAAITSSGGSTFYADSVKGRFTISRDNAKNTVYLQMNSLKPEDTAVYYCAASVGREVGWGQGTQVTVSS | high polyreactivity
QVQLVESGGGLVQSGGSLRLSCAASGFTLYYYAMGWYRQAPGKERELVARISGSSGRTYYADSVKGRFTISRDNAMNTFYLQMNSLKPEDTAVYFCAARYYTSATMDYWGQGTQVTVSS | high polyreactivity
QVQLVESGGGLVQSGGSLRLSCAASGIIFSRNAMGWYRQAPGKERELVAGITSSGGTTYYADSVKGRFTISRDNAKNTVYLQMNSLKPEDTAVYYCAAYSTQNYSYRRYYYWGQGTQVTVSS | high polyreactivity
QVQLVESGGGLVQSGGSLRLSCAASGITFDHYAMGWYRQAPGKERELVAAISVSGGRTYYADSVKGRFTISRDNAKNTVYLQMNSLKPEDTAVYYCAKVSQVRGFYYWGQGTQVTVSS | high polyreactivity
QVQLVESGGGLVQSGGSLRLSCAASGITLRRNAMVWYRQAPGKERELVASISSRGGTTYYADSVKGRFTISRDNAKNTDYLQMISQKPEDTAVYYCAAYRVQRLANTGYDYWGQGTQVTVSS | high polyreactivity
QVQLVESGGGLVQSGGSLRLSCAASGLTFKENVMGWYRQAPGKERELVAAISTGASTYYADSVKGRFTISRDNAKNTVYLQMNSLKPEDTAVYYCAKRVTRWYGYWGQGTQVTVSS | high polyreactivity
QVQLVESGGGLVQSGGSLRLSCAASGLTFMVYAMGWYRQAPGKEREFVAAITFSGGRTYYADSVKGRFTISRDNAKNTVYLQMNSLKPEDTAVYYCNAEAWSLGYDYWGQGTQVTVSS | low polyreactivity
QVQLVESGGGLVQSGGSLRLSCAASGRIFDYNAMGWYRQAPGKERELVAAINSGGSTYADSVKGRFTISRDNAKNTVYLQMNSLKPEDTAVYYCNATPQFATFTYDYCGQGTQVTVSS | low polyreactivity
QVQLVESGGGLVQSGGSLRLSCAASGRIFNIYAMGWYRPAPGKERELVAAISGSGGRTSYADSVKGRFTISRDNAKNTVYLQMNSLKPEDTAVYYCAADYSFYTSFRYDYWGQGTQVTVSS | low polyreactivity
QVQLVESGGGLVQSGGSLRLSCAASGRISYYYAMGWYRQAPGKERELVARISKSGGSTYYADSVKGRFTISRDNAKNTVYLQMNSLKPVVTAVYFCAARWKTGYNYWGEGTQVTVSS | high polyreactivity
QVQLVESGGGLVQSGGSLRLSCAASGRTFRYYAMGWYRQAPGKERELVAAISWNGANTYYADSVKGRFTISRDNAKNTVYLQMNSLKPEDTAVYYCAATYYRWKGYDYWGQGTQVNVSS | high polyreactivity
QVQLVESGGGLVQSGGSLRLSCAASGRTIGAYAMGWYRQAPGKEREFVAAITFGGGPTYYADSVKGRFTISRDNAKNTVYLQMNSLKPEDTAVYYCAKRIDLSFPFARYDYWGQGTQVTVSS | low polyreactivity
QVQLVESGGGLVQSGGSLRLSCAASGSTFTSNTMGCYRQAPGKESEIVAGITWRGGSTYYADSVKGRFTISRDNAKNTVYLQMNSLKPEDTAVYYCAAYGYSKDVWNFYYWGQGTQVTVSS | low polyreactivity
QVQLVESGGGLVQSGGSLRLSCAASGSTVDDNAMGWSRQAPGQVMELVAAIDTSGGSTYADSVKGRFTISRYNAKNTVYLQMNSQKPEDTAVYYCAKPFSSNSWSHGYWGQGTQVTVSS | low polyreactivity
QVQLVESGGGLVQSGGSLRLSCVASGRTFRWYPMGWYRQEPGKERELVATITLNGGSTYYADSVKGRFTISRDNEKNTVYLQMNSLKPEDTAVYYCNRGTNVVRRGVYSFGYDYWGHGTQVTVSS | low polyreactivity
QVQLVESGGGLVQSGGSLRLTCAASGFTFYDYDMGWYRQAPGKERELVATITWSVGRTYYADSVKGRFTISRDTAKNTVYLQMNSLKPEDTAVYYCAADEPDRDYGYWGQGTQVTVSS | low polyreactivity
QVQLVESGGGLVQSGGSLRLTCAASGSIIRYYTMGWYRQAPGKERELVATITQSGGSTYYADSVKGRFTISRDNAKNTVYLQINSLKPEDTAVYYCAALVRRGFRLYGSWGQGTQVTVSS | high polyreactivity
QVQLVESGGGLVQSGGTLRLSCAASGFTFYWYAMGWYRQAPGKEREMVAAITRGGRTYYEDSVKGRFTITRDNAKNTVYLQMNSLKPEDNAVYYCYAYVSWYRTVRTKYDYWGQGTQVTVSS | high polyreactivity
QVQLVESGGGLVQSGGTLRLSCAASGSTFYVNAMGWYRLAPGKERELVAAINYSGGNTYYADSVKGRFTFSRDNAKNTVYLQMNTLKQEDTAVYYCAVDLIIKGYPWWIEDDYWGQGTQVTVSS | high polyreactivity

Sequence | polyreactivity (PSR sort gate)
QVQLVESGGGLVQTGGSLRLSCAASGLTLYVYAMGWYRQAPGKERELVASITSGGSTNYADSVKGRFTISRDNAKNTVYLQMNSLKPEDTAVYYCAAETDTVYDWIAPYVTYDYWGQGTQVTVSS | low polyreactivity
QVQLVESGGGLVQTGGSLRLSCAASGRTFGYNAMGWYRQAPGKERELVASISYSGGSTYYADSVKGRFTISRDNAKNTVYLQMNSLKPEDTAVYYCAAKYWYWQSPSKYYYWGQGTQVTVSS | high polyreactivity
QVQLVESGGGLVQTGGSLRLSCAASGSTYYYYAMGWSRPAPGKERELVAGISWGGGSTYFADSVKGRFTISRDNAMNSVYLQMNSLKPEDTAVYYCNALNPKSYDYWGQGTQVTVSS | low polyreactivity
QVQLVESGGGLVQVGGSLRLSCAASGITLSYYAMGWYRQAPGKERELVASITVSRTSTYYADSVKGRFTISRDNAKNSVYLQMNSLKPEDTAVYYCAAYAYQYRFSGYGYWGQGTQVTVSS | low polyreactivity
QVQLVESGGGLVQVGGSLRLSCDASGITLSYYAMGWYRQAPGKVRELVASITVSRTSTYYADSVKRRFTISRDNAKNTVYLQMNSLKPEDTAVYYCAAYAFQYRFSGYGYWGQGTQVTVSS | low polyreactivity
QVQLVESGGGLVRAGGSLRISCAASGSIFDVNDMGWYRQAPGKERELVASISWNGGSPYYADSVKRRFTISRDNAKNTVYLQLNILNPEDTAVYYCNRSYRRPTSDLYDYWGQGTQVTVSS | low polyreactivity
QVQLVESGGGRVHAGGSHRISCAASGSIFGRYAMGGYRQAPRQDREVVAAISSRGGSTYYADTVKGRFTISRDNAKNTVYLQMTSLKPEDTAFYYCAKENWCTSYYARYDDWGQGTQVTVSS | high polyreactivity
QVQLVESGGGVDQAGGSLRLSCAACGSTIPYYAMGWYRQAPGKERELVAAISASTGSTNYADSVKGRFTISRDNAKNTVYLQMNSLKPEDTAVYYCAKKRSKIKRFGYWGHGTQVTVSS | high polyreactivity
QVQLVESGGGVFQAGGSLRLSCAASGSIYAFNPMGWYRQAPGKETEFVASIRSSTGRTYYADSVKGRFTISRDNAKNTVYLQMNSLKPEDTAVYYCAADSPEKPPRRWYITWPDGYWGQGTQVTVSS | low polyreactivity
QVQLVESGGGVLQAGGSLRLSCAASGSTFAFYAMVRYREAPGKVRELVAAISRSGGRTYYADSVKGRFTISRDNAKNTVYLQMNSLIPEDTAVYYCAAPSGITTGPHREYDYWGLGTQVTVSS | high polyreactivity
QVQLVESGGGVVHAGGSLLLSCAASGRTFFRYVKGWYRQEPGKERELVAAISTRGGSTYYADSVKGRFTISRDNAKNTVYLQMNSLKPEDSAVYYCAADVPTGYDYWGQGTQVTVSS | high polyreactivity
QVQLVESGGGVVQAGASLRLSCAASGNIFYGYAMGWYRQAPGKERELVARINWSGSRTYYADSVKGRFTISRDNAKNTVYLQMNSLKPEDTAVYYCNTSTSRVPGNGDYWGQGSQVTVSS | high polyreactivity
QVQLVESGGGVVQAGGILSLSCAASGFTFATYAMGWYRQAPGKERELVAGITRSGGSTYYADSVKGRFTNSRYNAKNTVYLQMNSLKPEDTAVYYCNKAYGGDKYSGTYDYWGQGTQVTVSS | high polyreactivity
QVQLVESGGGVVQAGGSLRLICAASGLTFDKYTMGRYRQAPGKERELVARISTSGSRTYYADSVKGRFTISRDNAKNTVYLQMNSLIPEDTEVYYCNKDGWIRRRRGYDYWGQGTQVTVSS | high polyreactivity
QVQLVESGGGVVQAGGSLRLRCAASGSTVLGYVMGWYRQAPGKERELVAAITRSGGRTYYADSVQGRFTISRDNAKNTVSLQMNSLKPEETAVYYCAALRGPSFHGYGYWGQGTQVTVSS | high polyreactivity
QVQLVESGGGVVQAGGSLRLSCAASGFIFSVIVMGWYRQAPGKERELVASIPSGGSPYYADSVKGRFTISRDNAKNTVYLQMNSLKPEDTAVYYCAAEFVRSVEHHPGFDYWGQGTQVTVSS | low polyreactivity
QVQLVESGGGVVQAGGSLRLSCAASGFTFARYTMGWYRPAPGKERELVAAISSRGSSTYYADSVKGRFTISRDNAKNTVYLQMNSLKPEDTAVYYCAKAYYTPYGVYVLHYYWGQGTQVTVSS | high polyreactivity
QVQLVESGGGVVQAGGSLRLSCAASGFTFAYYATGWYRQAPGKERELVAAISRSGGSTYYADSVKGRFTISRDNAKNTVYLHMNSLKPEDTAVYYCARDQRKLGADFDSWGQRTQVTVSS | high polyreactivity
QVQLVESGGGVVQAGGSLRLSCAASGFTFGLYAMGWYRQAPGKERELVAVISSSGGSTYYADSVKGRFTISRDNAKNTVYLQMNSLKPEDTAVYYCAAEWHDYKFDVTYDYWGQGTQVTVSS | low polyreactivity
QVQLVESGGGVVQAGGSLRLSCAASGIIFDGNAMGWYRQAPGKERELVAAITSSTDSTYYADSVKGRFTFSRDNAKNTVYLQMNSLKPEDTAVYYCAADYPSKTFDYWGQGTQVTVSS | low polyreactivity
QVQLVESGGGVVQAGGSLRLSCAASGIIFLYNVMGWYRQAPAKERELVAAISWRGGTYYAHSVKGRFTISRDNAKNSVYLQMNSLKPEDTAVYYCNTYPAASLYGFSYPYRYDSWGQGTQVTVSS | high polyreactivity
